Test results published in patent US20150139900A1 (BIOARCTIC NEUROSCIENCE, published 2015).

Columns and labels:
α-synuclein monomers = α-synuclein monomers (human, UniProt P37840 1-140); assay: competition ELISA, antigen in solution against plate coated with protofibrils
Protocol: (§1) Specifically, a high-binding ELISA microtiter plate was coated with 100 μl/well of 1 μg/ml of α-synuclein protofibril, diluted in 1×PBS, sealed with adhesive sealer and incubated overnight at +4° C. Then, the coating solution was discarded and the residual binding capacity of the plate was blocked by adding 200 μl/well of PBS-Tween 20 (0.05%). The sealed plate was incubated for 60 min at room temperature (R.T.) by shaking at 900 rpm.
(§2) Meanwhile, peptide solution was prepared in 1×PBS-Tween 20 (0.05%) by diluting α-synuclein monomers or protofibril to a concentration of 140 nM. A 10-step 3× dilution series of α-synuclein monomers and protofibrils was performed in a volume of 50 μl in a round bottomed, low protein binding microtiter plate. To this solution, 50 μl of the tested antibody diluted in PBS-Tween 20 (0.05%) to a concentration of 100 ng/ml was added and allowed to interact for 60 min at R.T. by shaking at 900 rpm. Sub sequentially, these pre-incubated samples were added to the washed (3× wash) coated high-binding plate and allowed to incubate for 15 min at R.T. without shaking. The ELISA plate was then washed to remove unbound antibodies.
(§3) Finally, the ELISA plate was washed to remove unbound antibodies and 100 μl of ALP-substrate were added to each well. The plate was kept dark during incubation at R.T. until a yellow color developed. Absorbance values were measured on continuous mode at a wavelength of 405 nm every 15 minutes up to 120 minutes.

[1] = target: ONE-stabilized human α-synuclein protofibrils (human, UniProt P37840 1-140); assay: competition ELISA
[2] = target: T1, HNE-stabilized human α-synuclein protofibrils (human, UniProt P37840 1-140); assay: competition ELISA
[3] = target: T1, HNE-stabilized human α-synuclein …; assay: competition ELISA, antigen in solution against plate coated with protofibrils
Protocol: as §1, §2, §3

Measured: binding result

B1: mAb38F11/2-8 (antibody, V domains shown)
VH: EVMLVESGGGLVKPGGSLKLSCAASGFTFSSYAMSWVRQTPEKRLEWVATISNGGSYTYYPDSVKGRFTISRDNAKNTLYLQMSSLRSEDTAMYYCARHSDYSGAWFAYWGQGTLVTVSA
VL: QIVLTQSPAIMSASPGEKVTISCSASSSVSYMYWYQQKPGSSPKPWIYRTSNLASGVPARFSGSGSGTSYSLTISSMEAEDAATYYCQQYHSYPYTFGGGTKLEIK
notes: Mouse monoclonal antibody from hybridoma; also called BA3
binds: α-synuclein monomers | [1] | [2]

B2: mAb49/G (antibody, V domains shown)
VH: EVQLVETGGGLVQPKGSLKLSCATSGFTFNTYAMNWVRQAPGKGLEWVARIRTKSNDYATYYADSVKGRITISRDDSQSMLYLQMNNLKTEDTAMYYCVRVGYRPYAMDYWGQGTSVTVSS
VL: DVLMTQTPLSLPVSLGDQASISCRSSQNIVHSNGNTYLEWYLQKPGQSPTLLIYKVSNRFSGVPDRFSGSGSGTDFTLKISRVEAEDLGVYYCFQGSHVPLTFGAGTKLELK
notes: Mouse monoclonal antibody from hybridoma, detected with anti-mouse IgG; constant regions are not; also called BA1
binds: [3] | α-synuclein monomers | [1]

B3: mAb48B11/8 (antibody, V domains shown)
VH: EVQLQESGPSLVKPSQTLSLTCSVTGDSFTSGYWNWIRKFPGNKLEYMGYIRYSGNTYYNPSLKSRISITRDTSKNQYYLQLISVTTEDTATFYCARSYYDYDRAWFAYWGQGALVTVSA
VL: DVVMTQTPLSLPVSLGDQASISCRSSQSLVHSNGNTYLHWYLQKPGQSPKLLIYKVSNRFSGVPDRFSGSGSGTDFTLKISRVEAEDLGVYFCSQSTHVPWTFGGGTKLEIK
notes: Mouse monoclonal antibody from hybridoma; also called BA4
binds: α-synuclein monomers | [1] | [2]
